According to patent publication US20220031806A1 (Five Prime, published 2022):

Biological target: T1, mouse PD-L1 on mouse splenocytes (mouse, UniProt Q9EP73 19-290)
T1 construct: whole, on cells
Assay: flow cytometry receptor occupancy on BALB/c and C57Bl/6 splenocytes, free PD-L1 by competing Ab clone
Experimental: FIGS. 1A and 1B: Mouse splenocytes were evaluated for mCD80-Fc engagement and receptor occupancy. (A) Splenic immune cell subsets were identified as CD11b+ DCs (B220-Thy1.2−CD49b−CD11c+CD11b+), CD11b− DCs (B220− Thy1.2−CD49b-CD11c+CD11b−), Macrophages (B220−Thy1.2−CD49b−CD11c−CD11b+), NK cells (B220− Thy1.2−CD49b+), and T cells (CD3+CD4+ or CD3+CD8+) by flow cytometry. Representative flow cytometry plots depict the gating strategy. (B) Increasing concentrations of mCD80-Fc were incubated with mouse splenocytes (BALB/c strain top row; C57Bl/6 strain bottom row), and mCD80-Fc engagement was measured both via biotin-labeled anti-mIgG followed by streptavidin Alexa488 (“bound drug”) and by detection of CD80 ligands with competing Ab clones (“free” PD-L1 or CD28) enumerated as Antibody Binding Capacity (ABC) values. CTLA-4 was not detected on any immune cell evaluated (data not shown). L.D., limit of detection of ABC. Graphs depict mean±SD of n=3 animals/strain measured in technical duplicates. […]
Mouse splenocytes were prepared from adult BALB/c and […] mice by methods known to those of ordinary skill in the art. […] Data from the samples was acquired on a BD LSRII or BD LSRFortessa and analyzed using FlowJo, Excel, and Graphpad Prism.

T1 sequence (Q9EP73 19-290): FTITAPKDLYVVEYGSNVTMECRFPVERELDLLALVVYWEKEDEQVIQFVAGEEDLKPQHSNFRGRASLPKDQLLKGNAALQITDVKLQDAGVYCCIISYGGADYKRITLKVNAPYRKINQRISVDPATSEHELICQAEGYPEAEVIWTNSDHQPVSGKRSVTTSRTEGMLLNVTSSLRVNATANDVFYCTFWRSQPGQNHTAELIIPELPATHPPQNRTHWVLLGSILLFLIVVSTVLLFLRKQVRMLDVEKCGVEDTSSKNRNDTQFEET

B1: mouse surrogate fusion protein comprising the extracellular domain (ECD) of murine CD80 linked to the Fc domain of mouse IgG2a wild type (mCD80-Fc) (Fc fusion)
chain: VDEQLSKSVKDKVLLPCRYNSPHEDESEDRIYWQKHDKVVLSVIAGKLKVWPEYKNRTLYDNTTYSLIILGLVLSDRGTYSCVVQKKERGTYEVKHLALVKLSIKADFSTPNITESGNPSADTKRITCFASGGFPKPRFSWLENGRELPGINTTISQDPESELYTISSQLDFNTTRNHTIKCLIKYGDAHVSEDFTWEKPPEDPPDSKNEPRGPTIKPCPPCKCPAPNLLGGPSVFIFPPKIKDVLMISLSPIVTCVVVDVSEDDPDVQISWFVNNVEVHTAQTQTHREDYNSTLRVVSALPIQHQDWMSGKEFKCKVNNKDLPAPIERTISKPKGSVRAPQVYVLPPPEEEMTKKQVTLTCMVTDFMPEDIYVEWTNNGKTELNYKNTEPVLDSDGSYFMYSKLRVEKKNWVERNSYSCSVVHEGLHNHHTTKSFSRTPGK
notes: also called Murine CD80 ECD Fusion Molecules; Mouse CD80 ECD mouse Fc IgG2a
  binding result: no binding (tested: 0-1000 µg/mL)
